In patent US20190270826A1:
Where “and” joins values, the source holds several entries; their conditions need not be identical. Equal entries are not always repeated.

Assays:
[1] = molecular target: human FcRn (human) (UniProt P55899); assay: AlphaScreen competition, human FcRn (n=1); displaced: biotinylated control mAb B21M WT IgG1 (m27); pH 6.0
[2] = molecular target: human FcγRI (human) (UniProt P12314); assay: AlphaScreen competition, human FcγRI (n=1); displaced: biotinylated control mAb B21M hIgG1 AlaAla; pH 7.2
[3] = molecular target: recombinant human IL1RAP ECD (human) (UniProt Q9NPH3); assay: SPR (ProteOn)
recombinant human IL1RAP ECD (human), sequence (Q9NPH3 other isoform, or with tags, fused parts or gaps): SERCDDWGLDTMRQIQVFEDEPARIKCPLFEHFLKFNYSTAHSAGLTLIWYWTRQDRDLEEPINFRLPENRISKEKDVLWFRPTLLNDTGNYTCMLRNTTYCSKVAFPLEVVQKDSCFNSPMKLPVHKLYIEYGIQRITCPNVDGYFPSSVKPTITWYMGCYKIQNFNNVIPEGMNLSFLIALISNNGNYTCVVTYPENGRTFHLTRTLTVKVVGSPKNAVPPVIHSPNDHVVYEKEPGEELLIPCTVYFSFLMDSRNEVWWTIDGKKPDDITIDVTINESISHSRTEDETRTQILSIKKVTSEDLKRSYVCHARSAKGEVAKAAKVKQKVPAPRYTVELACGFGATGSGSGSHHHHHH

human FcγRI (human), sequence (P12314 16-292 limits assumed): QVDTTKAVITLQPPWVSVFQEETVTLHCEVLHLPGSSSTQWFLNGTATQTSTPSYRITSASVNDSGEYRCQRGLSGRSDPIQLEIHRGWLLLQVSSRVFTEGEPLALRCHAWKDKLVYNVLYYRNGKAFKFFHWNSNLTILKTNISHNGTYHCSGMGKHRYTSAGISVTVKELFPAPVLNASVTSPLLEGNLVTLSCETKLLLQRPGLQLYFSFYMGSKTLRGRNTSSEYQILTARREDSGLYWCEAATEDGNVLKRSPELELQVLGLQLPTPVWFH

IC50 (read off the curve) [1] | IC50 (read off the curve) [2] | Kd [3] | koff [3] | kon [3] | Substance
200 nM | – | – | – | – | Human IgG4-PAA isotype control (antibody)
90 nM | 3 nM | – | – | – | wild type hIgG1 (antibody)
– | – | 1.42 nM and 1.21 nM | 0.000369 s⁻¹ and 0.000336 s⁻¹ | 260000 M⁻¹ s⁻¹ and 277000 M⁻¹ s⁻¹ | anti-human/cyno IL1RAP, mouse IgG1, R&D #MAB676 (antibody)
